Laboratory results as given in article doi:10.1101/2022.10.28.514248 (bioRxiv, 2022).

Target: the molecule itself
Test: crystal structure

B1: GDAP1ΔTM T157P (Ganglioside-induced differentiation-associated protein 1, amino acids 1-322, T157P) (domain or fragment, mouse)
chain: GGSMARRQDEARAGVPLRVEGPPDKEVHLILYHWTHSFSSQKVRLVIAEKALKCEEHDVSLPLSEHNEPWFMRLNSAGEVPVLVHGENIICEATQIIDYLEQTFLDERTPRLMPDEGSMYYPRVQHYRELLDSLPMDAYTHGCILHPELTVDSMIPAYAPTRIRSQIGNTESELKKLAEENPDLQEAYIAKQKRLKSKLLDHDNVKYLKKILDELEKVLDQVETELQRRNEETPEEGNQPWLCGESFTLADVSLAVTLHRLKFLGFARRNWGHGKRPNLETYYERVLKRKTFNKVLGHVNNILISAVLPTAFRVAKKRAPKVLGS
Question: Does B1 bind?
Answer: Result: binds
